B1: DOM10-275-78 (VHH)
VHH: EVQLLESGGGLVQPGGSLRLSCVASGFTFDVAEMDWVRQAPGKGLEWVSTISPSRRGTYYADSVKGRFTISRDNSKNTLYLQMNSLRAEDTAVYYCAKAYTGRSLWGPGTLVTVSS
B2: DOM10-53-474 (VHH)
VHH: GVQLLESGGGLVQPGGSLRLSCAASGFTFAWYDMGWVRQAPGKGLEWVSSIDWHGEVTYYADSVKGRFTISRDNSKNTLYLQMNSLRAEDTAVYYCATAEDEPGYDYWGQGTLVTVSS

Columns and labels:
[1] = biological target: cynomolgus IL-13 (cynomolgus, UniProt Q0PW92 21-132); assay: cell-based or functional assay
[2] = biological target: human IL-13 (human, UniProt P35225 35-146); assay: cell-based or functional assay
human IL-13, sequence (P35225 35-146 limits assumed): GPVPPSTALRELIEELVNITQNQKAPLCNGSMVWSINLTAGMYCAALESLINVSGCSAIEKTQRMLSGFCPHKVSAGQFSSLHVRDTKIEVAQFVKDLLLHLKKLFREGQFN

cynomolgus IL-13, sequence (Q0PW92 entry or part of it): as the sequence (P35225 35-146 limits assumed) above, with G1S, R10K, M42V, S67N, H83R, L100V counted along it

Row | Binder | EC50, FIG. 1B HEK STAT6 assay with cynomolgus IL-13, sample JAL050308_20p [1] | EC50, FIG. 1B HEK STAT6 assay with cynomolgus IL-13, sample JAL050308_20s [1] | EC50, FIG. 1A HEK STAT6 assay with human IL-13, sample JAL050308_20p [2] | EC50, FIG. 1A HEK STAT6 assay with human IL-13, sample JAL050308_20s [2] | EC50, FIG. 1B HEK STAT6 assay with cynomolgus IL-13 [1] | EC50, FIG. 1A HEK STAT6 assay with human IL-13 [2]
1 | B1 | 1.37 nM | 1.37 nM | 2.65 nM | 2.42 nM | – | –
2 | B2 | – | – | – | – | 10.8 nM | 0.72 nM
